From article PMC10576006 (2023)

Legend:
[1] = molecular target: T1, human wildtype KRas4B 1-169 (C-terminal truncated) (human, UniProt P01116-2 1-169); assay: BLI; 2:1 heterogeneous model, binding type 2 (69-99 %)
[2] = molecular target: T1, human wildtype KRas4B 1-169 (C-terminal …); assay: BLI; 1:2 bivalent model

B1: GST-Rgl2^RA (Ras association domain of human Rgl2, residues 643-740, fused with GST) (domain or fragment)
chain: GPGASDCRIIRVQMELGEDGSVYKSILVTSQDKAPSVISRVLKKNNRDSAVASEYELVQLLPGERELTIPASANVFYAMDGASHDFLLRQRRRSSTAT
B1 showed a Kd [1] of 1.62 µM and a Kd [2] of 48.2 µM.
